From patent US20160185837A1, “GIP AND GLP-1 RECEPTOR DUAL-AGONISTS FOR THE TREATMENT OF DIABETES” (Medimmune Limited, priority 2013, published 2016)
One block for each substance: values may come before it.

Experiments:
Assay in all cases: cell-based or functional assay
[1] = target: T1, human GIP receptor (human) (UniProt P48546)
T1 sequence (looked up): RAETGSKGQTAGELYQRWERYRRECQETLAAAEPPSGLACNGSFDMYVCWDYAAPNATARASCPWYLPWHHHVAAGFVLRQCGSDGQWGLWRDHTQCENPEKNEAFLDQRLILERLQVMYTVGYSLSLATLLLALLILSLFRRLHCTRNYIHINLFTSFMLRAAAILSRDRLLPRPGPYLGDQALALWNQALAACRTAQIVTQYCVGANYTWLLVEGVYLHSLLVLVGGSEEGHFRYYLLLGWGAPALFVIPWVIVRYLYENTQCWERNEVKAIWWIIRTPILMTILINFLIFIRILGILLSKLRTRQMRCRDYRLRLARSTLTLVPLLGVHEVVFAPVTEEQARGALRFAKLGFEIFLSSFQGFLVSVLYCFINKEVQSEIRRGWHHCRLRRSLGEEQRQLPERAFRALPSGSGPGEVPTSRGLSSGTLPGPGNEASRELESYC

[2] = target: mouse GLP-1 receptor (mouse) (UniProt O35659)
rat GLP-1 receptor (rat) = rat GLP-1 receptor (rat) (UniProt P32301)
[3] = target: cynomolgus monkey GLP-1 receptor (cynomolgus monkey) (UniProt F8V479)
[4] = target: cynomolgus monkey glucagon receptor (cynomolgus monkey)

Sequence of cynomolgus monkey GLP-1 receptor (cynomolgus monkey) (F8V479 entry or part of it): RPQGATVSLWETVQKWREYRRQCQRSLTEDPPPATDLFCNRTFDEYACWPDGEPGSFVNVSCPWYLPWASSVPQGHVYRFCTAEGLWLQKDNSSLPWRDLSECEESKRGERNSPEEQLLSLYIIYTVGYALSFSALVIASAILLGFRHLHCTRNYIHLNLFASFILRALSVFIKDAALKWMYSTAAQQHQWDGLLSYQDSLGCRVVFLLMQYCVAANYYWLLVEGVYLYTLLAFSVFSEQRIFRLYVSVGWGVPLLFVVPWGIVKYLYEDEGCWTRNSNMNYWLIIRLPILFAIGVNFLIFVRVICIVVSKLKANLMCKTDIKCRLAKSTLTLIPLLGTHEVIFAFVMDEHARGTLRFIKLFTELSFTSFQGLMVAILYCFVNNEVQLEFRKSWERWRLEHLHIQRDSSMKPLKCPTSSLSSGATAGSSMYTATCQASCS
Sequence of mouse GLP-1 receptor (mouse) (O35659 22-463): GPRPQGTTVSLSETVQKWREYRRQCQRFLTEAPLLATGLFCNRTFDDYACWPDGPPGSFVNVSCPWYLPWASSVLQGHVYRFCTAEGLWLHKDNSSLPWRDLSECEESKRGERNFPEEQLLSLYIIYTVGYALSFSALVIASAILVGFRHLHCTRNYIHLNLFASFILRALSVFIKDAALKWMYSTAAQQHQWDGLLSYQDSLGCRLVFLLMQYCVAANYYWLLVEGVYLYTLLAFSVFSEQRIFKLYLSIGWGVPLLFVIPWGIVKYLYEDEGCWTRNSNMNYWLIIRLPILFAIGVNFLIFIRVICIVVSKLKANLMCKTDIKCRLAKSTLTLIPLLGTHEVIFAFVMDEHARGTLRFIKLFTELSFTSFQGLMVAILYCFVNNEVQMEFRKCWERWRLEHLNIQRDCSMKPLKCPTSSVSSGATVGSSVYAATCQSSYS
Sequence of rat GLP-1 receptor (rat) (P32301 22-463): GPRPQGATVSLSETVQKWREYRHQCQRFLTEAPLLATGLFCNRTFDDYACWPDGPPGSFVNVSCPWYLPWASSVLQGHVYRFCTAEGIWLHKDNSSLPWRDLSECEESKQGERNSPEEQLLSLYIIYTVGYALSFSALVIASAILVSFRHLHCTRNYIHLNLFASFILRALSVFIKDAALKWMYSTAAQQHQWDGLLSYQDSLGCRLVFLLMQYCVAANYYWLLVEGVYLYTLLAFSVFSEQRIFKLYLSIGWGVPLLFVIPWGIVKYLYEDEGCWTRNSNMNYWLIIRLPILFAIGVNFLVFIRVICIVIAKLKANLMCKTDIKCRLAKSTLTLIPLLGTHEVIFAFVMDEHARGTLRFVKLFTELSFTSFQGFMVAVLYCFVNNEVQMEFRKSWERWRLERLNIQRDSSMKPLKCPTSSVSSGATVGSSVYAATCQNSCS

- cAMP EC50 [1]: 0.0047 nM
Substance: human GIP (peptide)

- cAMP EC50 [2]: 1.8 nM
- cAMP EC50 (rat GLP-1 receptor (rat)): 0.54 nM
Substance: glucagon (from UniProt P01275 53-81) (peptide)

- cAMP EC50, 4.2% cyno serum albumin [3]: 0.025 nM
- cAMP EC50, 4.2% cyno serum albumin [4]: > 1000 nM
Substance: liraglutide (peptide)
